Measured values published in publication PMC9006650, “Phosphorylation and acetylation of mitochondrial transcription factor A promote transcription processivity without compromising initiation or DNA compaction”.

Molecular target: T1, TFAM (unmodified) (Homo sapiens, UniProt Q00059 43-246)
T1 sequence: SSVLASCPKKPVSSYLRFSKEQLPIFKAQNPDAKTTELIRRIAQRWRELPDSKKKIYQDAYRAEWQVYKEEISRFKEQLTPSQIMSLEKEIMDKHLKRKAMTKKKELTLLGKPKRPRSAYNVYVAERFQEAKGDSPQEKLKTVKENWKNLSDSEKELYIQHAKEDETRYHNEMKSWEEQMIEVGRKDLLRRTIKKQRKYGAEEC
Test: EMSA; 40 nM DNA; 50, 25, 12 bp per TFAM; no gel shift (legend: very low affinity); pUC19: 50 mM Tris-acetate pH 8.0, 100 mM K acetate, 5 mM Mg acetate, 1 mM DTT, 37 C 30 min, 1% agarose at 4 C; poly-T: 25 mM Tris-HCl pH 8.0, 70 mM NaCl, 10 mM
Conditions: protein: recombinant; tags: N-terminal His6 removed with TEV protease; label: 5'-32P; single strand

B1: poly-T ssDNA 30-mer (ssDNA)
DNA: TTTTTTTTTTTTTTTTTTTTTTTTTTTTTT
- binding result: no binding
